Experimental findings from the supplement of paper PMC9112550, “Optimization of the antimicrobial peptide Bac7 by deep mutational scanning” (BMC Biology, 2022) are described below.
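Also: peptides expressed intracellularly from a pBAD plasmid library in pooled LB shake-flask culture, induced with 0.3% L-arabinose, DNA abundance read by NGS, three biological replicates, DESeq2 with apeglm shrinkage.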

The test system of the data set is Escherichia coli TOP10. Nature of the data set: shrunken log2 fold change of peptide-encoding DNA abundance (4.5 h post-induction vs induction); higher = less antimicrobial activity (less host growth inhibition). To be noted: time post-induction: 4.5 h; library: site-saturation at positions 5, 18, 19, 20.
Turning to RRIRPRPPRLPRPRPRPTVPPRP, the “shrunken log2 fold change” value is -0.0252.

Turning to RRIRWRPPRLPRPRPRPWTQPRP, the “shrunken log2 fold change” value is 0.272.

Consider RRIRERPPRLPRPRPRPICLPRP, for which the “shrunken log2 fold change” value is -0.0493.

As to RRIRLRPPRLPRPRPRPEHDPRP, the “shrunken log2 fold change” value worked out at 0.0235.

Regarding RRIRYRPPRLPRPRPRPTQQPRP, the “shrunken log2 fold change” value was -0.00797.

With RRIRGRPPRLPRPRPRPAYLPRP, the “shrunken log2 fold change” value was found to be 0.235.

Turning to RRIRLRPPRLPRPRPRPEWPPRP, the “shrunken log2 fold change” value came to 0.549.

Turning to RRIRRRPPRLPRPRPRPFIVPRP, the “shrunken log2 fold change” value was -0.0553.

On to RRIRTRPPRLPRPRPRPVFHPRP, for which the “shrunken log2 fold change” value was -0.136.

For RRIRMRPPRLPRPRPRPLRPPRP, the “shrunken log2 fold change” value came to 1.76.

Turning to RRIRGRPPRLPRPRPRPAHKPRP, the “shrunken log2 fold change” value amounted to 0.551.

For RRIRKRPPRLPRPRPRPMRFPRP, the “shrunken log2 fold change” value was found to be 0.123.

In the case of RRIRIRPPRLPRPRPRPLEAPRP, the “shrunken log2 fold change” value was -0.118.

For RRIRYRPPRLPRPRPRPRANPRP, the “shrunken log2 fold change” value is -0.109.

Take RRIRWRPPRLPRPRPRPRELPRP: the “shrunken log2 fold change” value is 0.642.

With RRIRIRPPRLPRPRPRPVKAPRP, the “shrunken log2 fold change” value was -0.0571.

Turning to RRIRDRPPRLPRPRPRPTHVPRP, the “shrunken log2 fold change” value is 0.244.

As for RRIRWRPPRLPRPRPRPHMSPRP, the “shrunken log2 fold change” value turned out to be 0.033.

On to RRIRYRPPRLPRPRPRPFPCPRP, for which the “shrunken log2 fold change” value was -0.467.

As to RRIRVRPPRLPRPRPRPDGTPRP, the “shrunken log2 fold change” value is -0.161.

With RRIRTRPPRLPRPRPRPSEQPRP, the “shrunken log2 fold change” value was determined as 0.0636.

Consider RRIRHRPPRLPRPRPRPALAPRP, for which the “shrunken log2 fold change” value was found to be 0.24.

In the case of RRIRDRPPRLPRPRPRPALIPRP, the “shrunken log2 fold change” value was determined as 0.145.

Consider RRIRARPPRLPRPRPRPGGTPRP, for which the “shrunken log2 fold change” value was determined as 0.41.

For RRIRARPPRLPRPRPRPFIPPRP, the “shrunken log2 fold change” value was -0.492.

Turning to RRIRMRPPRLPRPRPRPEHWPRP, the “shrunken log2 fold change” value was -0.00593.

Turning to RRIRSRPPRLPRPRPRPMLCPRP, the “shrunken log2 fold change” value is -0.121.

With RRIRPRPPRLPRPRPRPSVVPRP, the “shrunken log2 fold change” value was -0.162.

Take RRIRQRPPRLPRPRPRPEQVPRP: the “shrunken log2 fold change” value stood at 0.107.

For the sequence RRIRYRPPRLPRPRPRPYNAPRP, the “shrunken log2 fold change” value is -0.471.

As for RRIRPRPPRLPRPRPRPYMEPRP, the “shrunken log2 fold change” value was 1.54.

As to RRIRTRPPRLPRPRPRPTHVPRP, the “shrunken log2 fold change” value was 0.122.

As to RRIRERPPRLPRPRPRPPQLPRP, the “shrunken log2 fold change” value worked out at 0.194.

On to RRIRRRPPRLPRPRPRPMGLPRP, for which the “shrunken log2 fold change” value is -0.0617.

RRIRMRPPRLPRPRPRPYAVPRP: the “shrunken log2 fold change” value was -0.0789.

For RRIRARPPRLPRPRPRPQKVPRP, the “shrunken log2 fold change” value was 0.0196.

RRIRFRPPRLPRPRPRPRQPPRP: the “shrunken log2 fold change” value worked out at 0.68.

RRIRTRPPRLPRPRPRPLRHPRP: the “shrunken log2 fold change” value is 0.252.

As to RRIRIRPPRLPRPRPRPHRIPRP, the “shrunken log2 fold change” value was 0.0122.

With RRIRVRPPRLPRPRPRPRALPRP, the “shrunken log2 fold change” value was 0.307.

As for RRIRGRPPRLPRPRPRPDHCPRP, the “shrunken log2 fold change” value was found to be 0.0254.

For the sequence RRIRCRPPRLPRPRPRPHDIPRP, the “shrunken log2 fold change” value is -0.00735.

Consider RRIRERPPRLPRPRPRPPFLPRP, for which the “shrunken log2 fold change” value was -0.075.

For the sequence RRIRPRPPRLPRPRPRPGKKPRP, the “shrunken log2 fold change” value is 0.00372.

As for RRIRLRPPRLPRPRPRPCRSPRP, the “shrunken log2 fold change” value was -0.0599.

As for RRIRQRPPRLPRPRPRPDVYPRP, the “shrunken log2 fold change” value amounted to 0.0517.

In the case of RRIRHRPPRLPRPRPRPIWAPRP, the “shrunken log2 fold change” value was 0.0355.

As to RRIRWRPPRLPRPRPRPGRHPRP, the “shrunken log2 fold change” value was found to be 0.458.

Regarding RRIRPRPPRLPRPRPRPYFFPRP, the “shrunken log2 fold change” value is -0.593.

As for RRIRYRPPRLPRPRPRPLMRPRP, the “shrunken log2 fold change” value is -0.0447.

In the case of RRIRCRPPRLPRPRPRPMQIPRP, the “shrunken log2 fold change” value worked out at 0.0467.

As to RRIRTRPPRLPRPRPRPKITPRP, the “shrunken log2 fold change” value was -0.464.

Turning to RRIRMRPPRLPRPRPRPPWKPRP, the “shrunken log2 fold change” value amounted to 0.567.

Take RRIRARPPRLPRPRPRPICYPRP: the “shrunken log2 fold change” value was -0.0212.

On to RRIRSRPPRLPRPRPRPQPNPRP, for which the “shrunken log2 fold change” value is -0.00561.

For RRIRWRPPRLPRPRPRPHPYPRP, the “shrunken log2 fold change” value is -0.195.

In the case of RRIRTRPPRLPRPRPRPWCQPRP, the “shrunken log2 fold change” value is -0.134.

As for RRIRLRPPRLPRPRPRPVDSPRP, the “shrunken log2 fold change” value was found to be 0.0702.

Turning to RRIRCRPPRLPRPRPRPACQPRP, the “shrunken log2 fold change” value was found to be 0.305.

With RRIRRRPPRLPRPRPRPAKPPRP, the “shrunken log2 fold change” value was found to be 0.125.

As to RRIRHRPPRLPRPRPRPPKVPRP, the “shrunken log2 fold change” value came to 0.0708.

Take RRIRTRPPRLPRPRPRPFAWPRP: the “shrunken log2 fold change” value is -0.0156.

RRIRDRPPRLPRPRPRPCMHPRP: the “shrunken log2 fold change” value was determined as 0.175.

As for RRIRRRPPRLPRPRPRPDWGPRP, the “shrunken log2 fold change” value stood at 0.157.

In the case of RRIRSRPPRLPRPRPRPMNYPRP, the “shrunken log2 fold change” value was -0.162.

Regarding RRIRNRPPRLPRPRPRPSYSPRP, the “shrunken log2 fold change” value is -0.555.

For RRIRYRPPRLPRPRPRPGCTPRP, the “shrunken log2 fold change” value was -0.0794.

As to RRIRSRPPRLPRPRPRPGDYPRP, the “shrunken log2 fold change” value is -0.0123.

On to RRIRQRPPRLPRPRPRPIFSPRP, for which the “shrunken log2 fold change” value turned out to be 0.0638.

With RRIRVRPPRLPRPRPRPQHVPRP, the “shrunken log2 fold change” value is -0.0853.

Take RRIRERPPRLPRPRPRPMEWPRP: the “shrunken log2 fold change” value was found to be 0.0338.

For RRIRLRPPRLPRPRPRPFVVPRP, the “shrunken log2 fold change” value is -0.236.

As for RRIRIRPPRLPRPRPRPQFMPRP, the “shrunken log2 fold change” value is -0.831.

With RRIRNRPPRLPRPRPRPPHWPRP, the “shrunken log2 fold change” value turned out to be 0.406.

RRIRNRPPRLPRPRPRPLERPRP: the “shrunken log2 fold change” value amounted to 0.0661.

RRIRPRPPRLPRPRPRPGEWPRP: the “shrunken log2 fold change” value was determined as 0.214.

As to RRIRERPPRLPRPRPRPWKWPRP, the “shrunken log2 fold change” value was -0.0653.

As to RRIRSRPPRLPRPRPRPCTEPRP, the “shrunken log2 fold change” value was -0.241.

For the sequence RRIRDRPPRLPRPRPRPPYDPRP, the “shrunken log2 fold change” value was -0.00841.

Regarding RRIRARPPRLPRPRPRPTECPRP, the “shrunken log2 fold change” value amounted to 0.0171.

With RRIRWRPPRLPRPRPRPTFDPRP, the “shrunken log2 fold change” value came out at 0.273.

Take RRIRKRPPRLPRPRPRPNQPPRP: the “shrunken log2 fold change” value was 0.146.

On to RRIRPRPPRLPRPRPRPECEPRP, for which the “shrunken log2 fold change” value turned out to be 0.291.

As to RRIRWRPPRLPRPRPRPDTYPRP, the “shrunken log2 fold change” value was -0.161.

For the sequence RRIRTRPPRLPRPRPRPNEPPRP, the “shrunken log2 fold change” value was -0.102.

Turning to RRIRFRPPRLPRPRPRPGGLPRP, the “shrunken log2 fold change” value came out at 0.217.

Turning to RRIRKRPPRLPRPRPRPNGRPRP, the “shrunken log2 fold change” value came to 0.131.

As to RRIRPRPPRLPRPRPRPKDTPRP, the “shrunken log2 fold change” value was -0.173.

On to RRIRARPPRLPRPRPRPIKGPRP, for which the “shrunken log2 fold change” value is 0.3.

Take RRIRGRPPRLPRPRPRPYSPPRP: the “shrunken log2 fold change” value is -0.528.

RRIRLRPPRLPRPRPRPYFIPRP: the “shrunken log2 fold change” value is -1.11.

On to RRIRERPPRLPRPRPRPPFAPRP, for which the “shrunken log2 fold change” value came out at 0.403.

As to RRIRCRPPRLPRPRPRPKLNPRP, the “shrunken log2 fold change” value is -0.265.

In the case of RRIRWRPPRLPRPRPRPLFKPRP, the “shrunken log2 fold change” value is -0.242.

For RRIRKRPPRLPRPRPRPEVHPRP, the “shrunken log2 fold change” value was found to be 0.013.

Regarding RRIRWRPPRLPRPRPRPNHSPRP, the “shrunken log2 fold change” value was -0.409.

With RRIRKRPPRLPRPRPRPFFHPRP, the “shrunken log2 fold change” value was 0.203.

Take RRIRFRPPRLPRPRPRPSFSPRP: the “shrunken log2 fold change” value is -0.702.

For the sequence RRIRPRPPRLPRPRPRPCHKPRP, the “shrunken log2 fold change” value is -0.0956.

With RRIRWRPPRLPRPRPRPYPQPRP, the “shrunken log2 fold change” value is -0.361.

For RRIRYRPPRLPRPRPRPEPVPRP, the “shrunken log2 fold change” value was -0.00973.

Consider RRIRCRPPRLPRPRPRPVCMPRP, for which the “shrunken log2 fold change” value is -0.119.

Regarding RRIRHRPPRLPRPRPRPQKCPRP, the “shrunken log2 fold change” value is -0.0302.

RRIRSRPPRLPRPRPRPVCHPRP: the “shrunken log2 fold change” value is -0.388.

On to RRIRGRPPRLPRPRPRPMNTPRP, for which the “shrunken log2 fold change” value came to 0.632.

For the sequence RRIRTRPPRLPRPRPRPFICPRP, the “shrunken log2 fold change” value was -0.292.

For RRIRPRPPRLPRPRPRPCKVPRP, the “shrunken log2 fold change” value was -0.348.

In the case of RRIRLRPPRLPRPRPRPQNLPRP, the “shrunken log2 fold change” value was -0.149.

RRIRTRPPRLPRPRPRPGCVPRP: the “shrunken log2 fold change” value worked out at 0.0396.

Take RRIRKRPPRLPRPRPRPEKNPRP: the “shrunken log2 fold change” value worked out at 0.987.

With RRIRSRPPRLPRPRPRPFSSPRP, the “shrunken log2 fold change” value was -0.113.

In the case of RRIRWRPPRLPRPRPRPVINPRP, the “shrunken log2 fold change” value is -0.0708.

For RRIRRRPPRLPRPRPRPIQNPRP, the “shrunken log2 fold change” value stood at 0.0525.

RRIRKRPPRLPRPRPRPFWVPRP: the “shrunken log2 fold change” value was -0.175.

With RRIRWRPPRLPRPRPRPIRYPRP, the “shrunken log2 fold change” value was -0.242.

In the case of RRIRFRPPRLPRPRPRPKIIPRP, the “shrunken log2 fold change” value was -0.592.

Consider RRIRWRPPRLPRPRPRPWEWPRP, for which the “shrunken log2 fold change” value was -0.00895.

Take RRIRYRPPRLPRPRPRPPDRPRP: the “shrunken log2 fold change” value is 0.118.

In the case of RRIRSRPPRLPRPRPRPHIVPRP, the “shrunken log2 fold change” value is -0.243.

As to RRIRDRPPRLPRPRPRPKFEPRP, the “shrunken log2 fold change” value is -0.0187.

As for RRIRYRPPRLPRPRPRPWGAPRP, the “shrunken log2 fold change” value is -0.315.

In the case of RRIRNRPPRLPRPRPRPGFAPRP, the “shrunken log2 fold change” value came out at 0.444.

Turning to RRIRCRPPRLPRPRPRPHSMPRP, the “shrunken log2 fold change” value is -0.718.

In the case of RRIRIRPPRLPRPRPRPLWRPRP, the “shrunken log2 fold change” value came to 0.156.

On to RRIRQRPPRLPRPRPRPLRVPRP, for which the “shrunken log2 fold change” value was 0.298.
